According to patent publication US11046988B2, “Process for the modification of a glycoprotein using a β-(1,4)-N-acetylgalactosaminyl transferase or a mutant thereof” (Synaffix B.V., priority 2014, dated 2021):
Residue numbers refer to the chain shown, from its start. Names and notes keep the numbering of the source.

B1: TnGalNAcT(W336H): T. ni GalNAcT mutant, tryptophan 336 to histidine, SEQ ID NO: 51 (protein)
chain: MGGRATRALRLLLLLVLALAAVEYLFGSILDASPLRTYLYTPLYNATQPTLRNVERLAANWPKKIPSNYIEDSEEYSIKNISLSNHTTRASVVHPPSSITETASKLDKNMTIQDGAFAMISPTPLLITKLMDSIKSYVTTEDGVKKAEAVVTLPLCDSMPPDLGPITLNKTELELEWVEKKFPEVEWGGRYSPPNCTARHRVAIIVPYRDRQQHLAIFLNHMHPFLMKQQIEYGIFIVEQEGNKDFNRAKLMNVGFVESQKLVAEGWQCFVFHDIDLLPLDTRNLYSCPRQPRHMSASIDKLHFKLPYEDIFGGVSAMTLEQFTRVNGFSNKYWGHGGEDDDMSYRLKKINYHIARYKMSIARYAMLDHKKSTPNPKRYQLLSQTSKTFQKDGLSTLEYELVQVVQYHLYTHILVNIDERS
B2: TnGalNAcT(I299M): T. ni GalNAcT mutant, isoleucine 299 to methionine, SEQ ID NO: 45 (protein)
chain: B1 chain with I299M, H336W
B3: β4GalT(Y289L,M344H): double mutant β-1,4-galactosyltransferase 1 described by Ramakrishnan et al. (protein, UniProt P08037 1-402, looked up, variant Y289L M344H)
chain: MKFREPLLGGSAAMPGASLQRACRLLVAVCALHLGVTLVYYLAGRDLRRLPQLVGVHPPLQGSSHGAAAIGQPSGELRLRGVAPPPPLQNSSKPRSRAPSNLDAYSHPGPGPGPGSNLTSAPVPSTTTRSLTACPEESPLLVGPMLIEFNIPVDLKLVEQQNPKVKLGGRYTPMDCISPHKVAIIIPFRNRQEHLKYWLYYLHPILQRQQLDYGIYVINQAGESMFNRAKLLNVGFKEALKDYDYNCFVFSDVDLIPMNDHNTYRCFSQPRHISVAMDKFGFSLPYVQLFGGVSALSKQQFLSINGFPNNYWGWGGEDDDIYNRLAFRGMSVSRPNAVIGKCRHIRHSRDKKNEPNPQRFDRIAHTKETMLSDGLNSLTYMVLEVQRYPLYTKITVDIGTPS
B4: TnGalNAcT(L302G): T. ni GalNAcT mutant, leucine 302 to glycine, SEQ ID NO: 44 (protein)
chain: MGSSHHHHHHSSGLVPRGSHMSPLRTYLYTPLYNATQPTLRNVERLAANWPKKIPSNYIEDSEEYSIKNISLSNHTTRASVVHPPSSITETASKLDKNMTIQDGAFAMISPTPLLITKLMDSIKSYVTTEDGVKKAEAVVTLPLCDSMPPDLGPITLNKTELELEWVEKKFPEVEWGGRYSPPNCTARHRVAIIVPYRDRQQHLAIFLNHMHPFLMKQQIEYGIFIVEQEGNKDFNRAKLMNVGFVESQKLVAEGWQCFVFHDIDLLPLDTRNLYSCPRQPRHMSASIDKGHFKLPYEDIFGGVSAMTLEQFTRVNGFSNKYWGWGGEDDDMSYRLKKINYHIARYKMSIARYAMLDHKKSTPNPKRYQLLSQTSKTFQKDGLSTLEYELVQVVQYHLYTHILVNIDERS
modifications: His6-TnGalNAcT(33-421; L302G)

Columns and labels:
β-(1,4)-GalNAcT = β-(1,4)-GalNAcT (Caenorhabditis elegans, UniProt Q9GUM2); settings: sugar nucleotide as donor substrate; cited from earlier work
[1] = tested on: trimmed trastuzumab (core GlcNAc(Fuc) / core GlcNAc, glycan of formula (1)); assay: Glycosyltransfer of sugar derivative to trimmed (Endo S deglycosylated) trastuzumab, MS analysis; format: biochemical; settings: UDP-F2-GalNBzN3 (24) 1 mM, enzyme 0.5 mg/mL, overnight
Experimental: Trimming of IgG glycans was performed using Endo S from Streptococcus pyogenes (commercially available from Genovis, Lund, Sweden). The IgG (10 mg/mL) was incubated with Endo S (40 U/mL) in 25 mM Tris pH 8.0 for approximately 16 hours at 37° C. The deglycosylated IgG was concentrated and washed with 10 mM MnCl2 and 25 mM Tris-HCl pH 8.0 using an Amicon Ultra-0.5, Ultracel-10 Membrane (Millipore).
Trastuzumab was subjected to the trimming protocol above. Analysis of the trimmed antibody was performed on a JEOL AccuToF equipped with an Agilent 1100 HPLC. Samples (2 μL) were reduced with DTT (2 μL) during 10 min and subsequently diluted with H2O (40 μL) prior to injection. […] The two peaks of heavy chain belonged to one major product (49496 Da, 90% of total heavy chain), resulting from core GlcNAc(Fuc) substituted trastuzumab, and a minor product (49351 Da, ±10% of total heavy chain), resulting from core GlcNac substituted trastuzumab. This is an example of a glycoprotein comprising a glycan according to formula (1).
A solution of 50 μg (modified) IgG, 1 M Tris-HCl pH 8.0, 1 mM EDTA and 30 mM DTT with a total volume of approximately 70 μL was incubated for 20 minutes at 37° C. to reduce the disulfide bridges allowing to analyze both light and heavy chain. If present, azide-functionalities are reduced to amines under these conditions. Reduced samples were washed trice with milliQ using an Amicon Ultra-0.5, Ultracel-10 Membrane (Millipore) and concentrated to 10 μM (modified) IgG. The reduced IgG was analyzed by electrospray ionization time-of-flight (ESI-TOF) on a JEOL AccuTOF. Deconvoluted spectra were obtained using Magtran software.
Enzymatic introduction of galactose derivative (e.g. azido-containing sugar) onto IgG was effected with a GalNAc-transferase or a mutant thereof. The deglycosylated IgG (prepared as described above, 10 mg/mL) was incubated with a modified UDP-galactose derivative (e.g. an azido-modified sugar-UDP derivative) (0.4 mM) and GalNAcT (1 mg/mL) in 10 mM MnCl2 and 25 mM Tris-HCl pH 8.0 for 16 hours at 30° C. The functionalized IgG (e.g. azido-functionalized IgG) was incubated with protein A agarose (40 μL per mg IgG) for 2 hours at 4° C. The protein A agarose was washed three times with PBS and the IgG was eluted with 100 mM glycine-HCl pH 2.7. The eluted IgG was neutralized with 1 M Tris-HCl pH 8.0 and concentrated and washed with PBS using an Amicon Ultra-0.5, Ultracel-10 Membrane (Millipore) to a concentration of 15-20 mg/mL.
Enzymatic introduction of galactose derivative (e.g. thio-containing sugar 21) onto IgG was effected with a GalNAc-transferase or a mutant thereof. The deglycosylated IgG (prepared as described above, 10 mg/mL) was incubated with a modified UDP-galactose derivative (e.g. an thio-modified sugar-UDP derivative) (2 mM) and GalNAcT (0.2 mg/mL) in 10 mM MnCl2 and 50 mM Tris-HCl pH 6.0 for 16 hours at 30° C. The functionalized IgG (e.g. thio-functionalized trastuzumab) was incubated with protein A agarose (40 μL per mg IgG) for 1 hours at rt. The protein A agarose was washed three times with TBS (pH 6.0) and the IgG was eluted with 100 mM glycine-HCl pH 2.5. The eluted IgG was neutralized with 1 M Tris-HCl pH 7.0 and concentrated and washed with 50 mM Tris-HCl pH 6.0 using an Amicon Ultra-0.5, Ultracel-10 Membrane (Millipore) to a concentration of 15-20 mg/mL.

[2] = cited from earlier work

Chain of β-(1,4)-GalNAcT (Q9GUM2 whole entry): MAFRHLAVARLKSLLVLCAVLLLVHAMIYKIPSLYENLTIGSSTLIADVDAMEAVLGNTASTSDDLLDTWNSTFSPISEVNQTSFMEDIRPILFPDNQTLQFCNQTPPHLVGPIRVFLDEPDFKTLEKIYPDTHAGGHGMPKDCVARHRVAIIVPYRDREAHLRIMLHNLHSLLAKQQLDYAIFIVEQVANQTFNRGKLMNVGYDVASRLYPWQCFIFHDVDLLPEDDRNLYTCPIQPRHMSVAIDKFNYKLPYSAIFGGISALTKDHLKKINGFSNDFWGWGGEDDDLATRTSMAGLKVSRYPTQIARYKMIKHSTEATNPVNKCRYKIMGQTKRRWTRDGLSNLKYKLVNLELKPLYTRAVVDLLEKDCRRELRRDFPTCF

Molecule | cumulative conversions of the major and minor product, F2-GalNBzN3 transfer [1] [%] | other results
CC(=O)N[C@H]1[C@@H](OP(=O)(O)OP(=O)(O)OC[C@H]2O[C@@H](n3ccc(=O)[nH]c3=O)[C@H](O)[C@@H]2O)O[C@H](CO)[C@@H](O)[C@@H]1O [UDP-GlcNAc] |  | transferase activity remaining (compared with UDP-GalNAc) (β-(1,4)-GalNAcT): 0.7%
B1 | 62 | 
B2 | 26 | 
B3 |  | activity in the presence of Mg2+ ([2]; Mg2+): 25-30%; loss of Mn2+-dependent activity ([2]; Mn2+): 98%
B4 | 14 | 
